Experimental findings from article PMC8761896 (2021) are described below.

For assay [1], the target named is eOD-GT6. Nature of the assay: SPR.
Assay [2] addresses eOD-GT6. Nature of the assay: SPR. The source holds these as a separate data set. (Surface plasmon resonance follows binding to a sensor surface in real time, without labels.)

B1: germline reverted VRC01 (VRC01gl) Fab (Fab, V domains shown)
VH: not shown
VL: EIVLTQSPATLSLSPGERATLSCRASQSVSSYLAWYQQKPGQAPRLLIYDASNRATGIPARFSGSGSGTDFTLTISSLEPEDFAVYYCQQYEFFGQGTKLEIK
One may read the Kd as the concentration at which binding is half-saturated. The koff is the rate constant with which the complex falls apart. High values mean a short-lived complex, low ones a long-lived complex. B1 displayed a dissociation constant Kd in assay [1] of 16.2 nM. Further, in assay [2], the koff was determined as 0.00073 s⁻¹.

B2: VRC01gl Fab with comL ('VQ' insertion at 103aL and 103bL, L104VL, E105DL) (Fab, V domains shown)
VH: not shown
VL: EIVLTQSPATLSLSPGERATLSCRASQSVSSYLAWYQQKPGQAPRLLIYDASNRATGIPARFSGSGSGTDFTLTISSLEPEDFAVYYCQQYEFFGQGTKVQVDI
Regarding B2, binding in assay [1] was put at a Kd of 16.4 nM. The same molecule displayed an off-rate constant (koff) in assay [2] of 0.000642 s⁻¹.
